As usually defined, the IC50 is the midpoint of a concentration-inhibition curve.

Here are results for one substance from publication PMC4637192.

In this test the target is HLA-DRB5*01:01 molecule (recombinant HLA-DRA1 and DRB5*01:01 chains) (human). Briefly: AlphaScreen or HTRF. Background: Alpha assays give light when donor and acceptor beads are brought close together.

In the case of “IE1 211-225 variant P3 K→Y (…) (peptide)”, the IC50 came out at 8 nM.
